Here are results for 2 molecules from patent US20230312739A1 (BIOTHEUS, published 2023).

Assay [1] has as its target CD73 on cynomolgus macaques CD3+CD8+ T cells (cynomolgus macaques). Description: flow cytometry on cynomolgus macaque PBMC, CD3+CD8+ T cells, donor 1132F. A general note: Flow cytometry measures light scatter and fluorescence of single cells or particles in a stream.
For assay [2] the target is unchanged. Description: flow cytometry on cynomolgus macaque PBMC, CD3+CD8+ T cells, donor 1300M.
The target of assay [3] is T1, human CD73 on the cell surface (tumor cells endogenously expressing human CD73; CHOS-human CD73) (human, UniProt P21589 27-549).
T1 sequence: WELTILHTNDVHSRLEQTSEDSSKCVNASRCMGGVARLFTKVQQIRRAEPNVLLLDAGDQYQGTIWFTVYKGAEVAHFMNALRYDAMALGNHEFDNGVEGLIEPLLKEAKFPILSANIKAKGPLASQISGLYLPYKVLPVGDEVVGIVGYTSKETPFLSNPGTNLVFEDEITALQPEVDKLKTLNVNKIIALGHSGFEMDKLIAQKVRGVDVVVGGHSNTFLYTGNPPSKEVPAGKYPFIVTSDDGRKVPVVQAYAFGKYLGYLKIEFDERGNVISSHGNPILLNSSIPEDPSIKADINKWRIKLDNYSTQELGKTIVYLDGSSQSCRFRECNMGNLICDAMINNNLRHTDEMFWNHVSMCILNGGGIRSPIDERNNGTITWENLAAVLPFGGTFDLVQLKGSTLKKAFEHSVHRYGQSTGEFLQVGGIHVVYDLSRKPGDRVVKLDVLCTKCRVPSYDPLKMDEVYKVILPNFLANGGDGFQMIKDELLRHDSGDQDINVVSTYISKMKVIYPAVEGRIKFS
Description: cell-based or functional assay.

The target of assay [4] is T1, human CD73 on the cell surface (tumor …). Description: flow cytometry, MFI, A375 cells expressing human CD73. The protocol:
(§1) 500,000 CD73-expressing cells (see Example 2) were placed in 100 μL of FACS buffer (PBS+2% FBS)/well for later use in a round-bottom low adsorption 96-well plate. The antibody sample was subjected to serial 3-fold dilutions at 12 points by diluting ½ of the total volume (100 μL) in 200 μL of FACS buffer. 100 μL of the diluted antibody was added to each well of the cell plate, 100 μL of FACS buffer was added to the corresponding negative control well, and incubation was performed at 4° C. for 1 hour. […] After staining, the supernatant was removed by centrifugation, washing was performed twice with FACS buffer, and 100 μL of FACS buffer was added to each well to resuspend the cells, and then reading was performed on flow cytometry. The cells in the plate were measured using a flow cytometer (BD, model ACCURI C6 PLUS). During the measurement, the cells were first gated according to FCS and SSC, and then analyzed by the green fluorescence channel (FITC) corresponding to the secondary antibody and SSC. GraphPad was used for data analysis, wherein the abscissa indicated the logarithm of antibody concentration, the ordinate indicated mean fluorescence intensity, and the EC50 value of the anti-CD73 antibody was obtained by curve fitting.

For assay [5] the target is unchanged. Description: flow cytometry, MFI, MDA-MB-231 cells expressing human CD73. The protocol:
as §1

For assay [6], the target named is T2, recombinant human CD73 protein (Baiying Bio) (human, UniProt P21589 27-549).
T2 construct: Bought protein; also called soluble recombinant CD73; soluble human CD73 protein
T2 sequence: T1 sequence
Description: SPR, Biacore T200 at 25 C, antibody captured on Protein A chip, CD73 protein as analyte, 1:1 model. The protocol: The antibody was diluted with running buffer 1*HBS-EP+ to 1 μg/ml, and was captured onto the chip surface (Protein A chip, GE, Cat #29127556) at a flow rate of 10 μl/min for 30 s. Then, a series of concentrations of CD73 protein (Baiying Bio, recombinant human CD73 protein) were injected into antibody channel at a flow rate of 30 μl/min, for association of 180 s, followed by dissociation for 900 s. 10 mM pH 1.5 Gly-HCl was used for regeneration. The sensorgram data was fitted using a 1:1 dynamic binding model.
In general terms: In SPR one partner is held on a chip, and binding of the other changes the refractive index at the surface.

In assay [7] the target is T2, recombinant human CD73 protein (Baiying …). Description: ELISA, 1 ug/ml recombinant human CD73 coated, HRP-coupled anti-IgG Fc secondary antibody, OD450. Here is the method:
1 μg/ml recombinant human CD73 protein (Baiying Bio, recombinant human CD73 protein) was coated on an ELISA plate in PBS for overnight at 4° C. The plate was washed 3 times with washing buffer (PBS, 0.05% Tween-20), and non-specific sites were blocked by adding 200 μl/well PBS+2% BSA. 100 μL of the anti-CD73 antibody in a dose range of gradient dilution was added to the ELISA plate coated with the antigen, and incubated at 37° C. for 1 h. The plate was washed 3 times in washing buffer, and HRP-coupled goat anti-human or goat anti-mouse IgG Fc fragment secondary antibody was added for 1 h at room temperature to detect the captured anti-CD73 antibody. […] The enzymatic reaction was stopped by adding 1M sulfuric acid solution, and the light absorption was measured at 450 nm. The graph was plotted with the absorbance value on the ordinate and the log value of antibody concentration on the abscissa, and the EC50 was calculated using GraphPad Prism software.
(An ELISA detects its analyte on a solid surface through an enzyme-linked reagent.)

Consider Isotype control (IgG1-TM) (antibody), for which the MFI FC (fold change of mean fluorescence intensity) came to 1.2 fold in assay [1] and 1 fold in assay [2].

B1: humanized antibody 7002-01 (antibody, human IgG1, kappa, V domains shown)
VH: QVQLQESGPGLVKPSQTLSLTCTVSGYSITSGYDWHWIRQHPGKGLEWMGYISYSGYTDYNPSLKSRITISHDTSKNQFSLKLSSVTAADTAVYYCTRGDHSYAMDYWGQGTLVTVSS
VL: AIQMTQSHSSLSASVGDRVTITCKASQAVGTAVAWYQQKPGKSPKLLIYWASSRHTGVPSRFSGSRSGTDFTLTISSLQPEDFATYFCQQYSSYPLTFGGGTKVEIKR
What is called EC50 is the concentration giving half of the maximal effect. A lower EC50 goes with a more potent agent. By Kd is commonly meant the concentration at which binding is half-saturated. Broadly, the koff is a measure of how fast the partners let go of each other. Broadly, the kon is the rate constant with which the complex forms. By EC50 (read off the curve) is commonly meant the midpoint of the concentration-response curve. In the case of B1, in assay [3], the “IC50 of antibody inhibiting enzymatic activity of CD73 on surface of A375 cells (AMP/ATP CellTiter-Glo)” value worked out at 0.26 µg/mL and the “IC50 of antibody inhibiting enzymatic activity of CD73 on surface of MDA-MB-231 cells (AMP/ATP CellTiter-Glo)” value was 1 µg/mL. In addition, in assay [4], the midpoint of the response, the EC50, lay at 0.6 µg/mL. The EC50 in assay [5] was 0.99 µg/mL. In addition, in assay [6], the equilibrium dissociation constant (Kd) is 210 pM, the koff came out at 6.24e-05 s⁻¹ and the kon was 297000 M⁻¹ s⁻¹. Further, the “EC50 (read off the curve)” value in assay [7] is roughly 0.008 µg/mL.
